Where “and” joins values, the source holds several entries; their conditions need not be identical. Equal entries are not always repeated.
B1: Barstar, P11540 (parent)
chain: MKKAVINGEQIRSISDLHQTLKKELALPEYYGENLDALWDCLTGWVEYPLVLEWRQFEQSKQLTENGAESVLQVFREAKAEGCDITIILS

Variants of: B1
Details: Bacillus amyloliquefaciens; pH 7.5; 25 °C; Urea; fluorescence; HEPES; KCL / MgOAc 150000 / 15000; transition: 2; structure 1BTA; whole UniProt chain shown

Variant	denaturant m value	denaturant midpoint (higher = more stable)	unfolding free energy
K3A	1.06 kcal/mol/M and 0.59 kcal/mol/M	4.97 M and 2.52 M	5.27 kcal/mol
K79A	0.89 kcal/mol/M and 0.48 kcal/mol/M	4.65 M and 4.24 M	4.16 kcal/mol
K61A	0.96 kcal/mol/M and 0.68 kcal/mol/M	4.41 M and 2.51 M	4.25 kcal/mol
K61A E81A	1.16 kcal/mol/M and 0.7 kcal/mol/M	6.02 M and 3.72 M	6.99 kcal/mol

Source: FireProtDB (doi:10.1038/s41589-020-0556-3)
